Test results as given in publication PMC7185628.

Target: MERS-CoV spike protein (S) (MERS-CoV, UniProt K9N5Q8 18-1296)
Assay: EMSA

MERS-CoV spike protein (S), sequence (K9N5Q8 18-1296): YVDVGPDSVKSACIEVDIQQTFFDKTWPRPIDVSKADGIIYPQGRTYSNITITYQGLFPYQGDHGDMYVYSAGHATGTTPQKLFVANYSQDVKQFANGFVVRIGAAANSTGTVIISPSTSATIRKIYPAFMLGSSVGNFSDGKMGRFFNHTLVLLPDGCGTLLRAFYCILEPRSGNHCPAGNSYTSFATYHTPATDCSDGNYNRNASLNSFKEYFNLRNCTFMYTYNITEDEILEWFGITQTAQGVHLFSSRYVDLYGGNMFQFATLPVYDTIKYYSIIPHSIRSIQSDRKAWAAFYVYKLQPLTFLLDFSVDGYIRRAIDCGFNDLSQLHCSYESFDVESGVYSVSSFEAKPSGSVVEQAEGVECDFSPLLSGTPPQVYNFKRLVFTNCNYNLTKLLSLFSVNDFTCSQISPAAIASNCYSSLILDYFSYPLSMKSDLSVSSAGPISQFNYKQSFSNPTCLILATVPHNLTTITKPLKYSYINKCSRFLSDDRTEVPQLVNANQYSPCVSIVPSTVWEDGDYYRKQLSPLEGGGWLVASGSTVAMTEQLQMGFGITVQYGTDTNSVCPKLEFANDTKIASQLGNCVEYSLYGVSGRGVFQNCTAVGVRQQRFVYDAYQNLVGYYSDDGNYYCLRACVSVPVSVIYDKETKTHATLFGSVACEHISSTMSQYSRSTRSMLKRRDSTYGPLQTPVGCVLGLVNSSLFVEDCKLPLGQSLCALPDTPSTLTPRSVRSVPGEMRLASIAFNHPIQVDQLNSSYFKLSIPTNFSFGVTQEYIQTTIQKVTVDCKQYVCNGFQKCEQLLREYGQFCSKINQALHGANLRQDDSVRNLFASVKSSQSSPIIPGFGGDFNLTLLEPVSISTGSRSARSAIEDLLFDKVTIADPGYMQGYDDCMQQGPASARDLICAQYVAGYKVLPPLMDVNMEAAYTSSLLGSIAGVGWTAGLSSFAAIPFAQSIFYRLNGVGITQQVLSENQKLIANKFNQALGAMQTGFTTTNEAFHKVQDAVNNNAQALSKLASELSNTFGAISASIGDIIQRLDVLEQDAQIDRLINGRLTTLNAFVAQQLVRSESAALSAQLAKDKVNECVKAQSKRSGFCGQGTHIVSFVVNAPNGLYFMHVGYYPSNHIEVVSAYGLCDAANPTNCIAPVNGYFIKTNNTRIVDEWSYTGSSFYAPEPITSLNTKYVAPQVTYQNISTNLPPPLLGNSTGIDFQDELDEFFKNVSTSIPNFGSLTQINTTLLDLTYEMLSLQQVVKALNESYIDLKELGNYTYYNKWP

B1: AIapt/FAM/SH-DNA 3WJ (MF-DNA) (structured_DNA)
DNA 1: GTGTGCATGGATAGCACGTAACGGTGTAGTAGATACGTGCGGGTAGGAAGAAAGGGAAATAGTTGTCCTGTTGTTGCCATGTGTATGTGGG
DNA 2: CCCACATACTTTGTTGATCC
DNA 3: GGATCAATCATGGCAA
modifications: 5' thiol on strand 3 (SH/3WJc)
Does B1 bind?
Result: no binding
